Three molecules from PMC10347550 (2023) can be followed below.

The assay has as its target integrin αIIbβ3 (Homo sapiens, UniProt P08514). Kind of assay: tryptophan fluorescence quenching (Stern-Volmer).
For Ac-MRGDH-NH2 (also: Met and His coordinated to Δ-Ru(Ph2phen)2, Cl2 salt) [Δ-[Ru(Ph2phen)2(Ac-MRGDH-NH2)]Cl2 (Δ-[1]Cl2)], the dissociation constant (Kd) (in general, a measure of binding affinity in units of concentration) was determined as 83 nM.
To Ac-MRADH-NH2 (also: Met and His coordinated to Δ-Ru(Ph2phen)2, dichloride salt) [Δ-[Ru(Ph2phen)2(Ac-MRADH-NH2)]Cl2 (Δ-[3]Cl2)] belongs 112 nM; to Ac-MRGDH-NH2 (also: Met and His coordinated to Λ-Ru(Ph2phen)2, Cl2 salt) [Λ-[Ru(Ph2phen)2(Ac-MRGDH-NH2)]Cl2 (Λ-[1]Cl2)], 61 nM.
